Measured values as given in PMC7338525, “Insights into the structure and function of Est3 from the Hansenula polymorpha telomerase”.

Biological target: T1, HpEst3 (Hansenula polymorpha, UniProt W1QJK4 1-175)
T1 sequence: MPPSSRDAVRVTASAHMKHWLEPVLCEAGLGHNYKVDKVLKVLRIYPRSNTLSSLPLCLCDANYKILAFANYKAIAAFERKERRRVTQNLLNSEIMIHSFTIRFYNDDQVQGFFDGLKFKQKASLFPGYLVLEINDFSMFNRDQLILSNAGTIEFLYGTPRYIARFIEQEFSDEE
Assay: NMR titration (15N-HpEst3); Est3:DNA up to 1:5; non-specific binding, signal broadening without shift changes; NMR: 100 mM KCl, 20 mM potassium phosphate pH 6.5, 0.02% NaN3, 3 mM DTT, 25 C; EMSA: 20 mM potassium phosphate pH 6.5, 100 mM KCl, 3 mM DTT, 8% native PAGE
Conditions: protein: recombinant

B1: ssDNA G4 (four telomeric repeats) (ssDNA)
DNA: GGGTGGCGGGGTGGCGGGGTGGCGGGGTGGCG
- binding result: binds
